Patent publication US20160264649A1

Experiments:
Experiment in all cases: cell-based or functional assay
[1] = target: HIV-1 MGRM-A-002 Env (HIV-1)
[2] = target: HIV-1 MGRM-AG-009 Env (HIV-1)
[3] = target: HIV-1 MGRM-A-008 Env (HIV-1)
[4] = target: HIV-1 94UG103 Env (HIV-1)
[5] = target: HIV-1 MGRM-AE-001 Env (HIV-1)
[6] = target: HIV-1 93WR029 Env (HIV-1)
[7] = target: HIV-1 92UG031 Env (HIV-1)
[8] = target: HIV-1 MGRM-A-004 Env (HIV-1)
[9] = target: HIV-1 MGRM-AE-004 Env (HIV-1)
[10] = target: HIV-1 MGRM-AE-006 Env (HIV-1)
[11] = target: HIV-1 MGRM-AG-011 Env (HIV-1)
[12] = target: HIV-1 MGRM-AE-008 Env (HIV-1)
[13] = target: HIV-1 MGRM-AG-001 Env (HIV-1)
[14] = target: HIV-1 MGRM-A-011 Env (HIV-1)
[15] = target: HIV-1 MGRM-AE-002 Env (HIV-1)
[16] = target: HIV-1 MGRM-A-001 Env (HIV-1)
[17] = target: HIV-1 MGRM-A-010 Env (HIV-1)
HIV-1 CMU02 Env (HIV-1) = target: HIV-1 CMU02 Env (HIV-1)
[18] = target: HIV-1 92RW008 Env (HIV-1)
[19] = target: HIV-1 92WR026 Env (HIV-1)
[20] = target: HIV-1 92WR021 Env (HIV-1)
[21] = target: HIV-1 MGRM-AE-003 Env (HIV-1)
HIV-1 VLGCA1 Env (HIV-1) = target: HIV-1 VLGCA1 Env (HIV-1)
[22] = target: HIV-1 MGRM-AG-008 Env (HIV-1)
[23] = target: HIV-1 MGRM-AG-002 Env (HIV-1)
[24] = target: HIV-1 MGRM-AG-005 Env (HIV-1)
[25] = target: HIV-1 MGRM-AG-013 Env (HIV-1)
[26] = target: HIV-1 MGRM-A-006 Env (HIV-1)
[27] = target: HIV-1 MGRM-AG-003 Env (HIV-1)
[28] = target: HIV-1 92WR020 Env (HIV-1)
[29] = target: HIV-1 MGRM-A-014 Env (HIV-1)
[30] = target: HIV-1 MGRM-A-005 Env (HIV-1)
[31] = target: HIV-1 MGRM-AE-007 Env (HIV-1)
[32] = target: HIV-1 MGRM-AG-012 Env (HIV-1)
[33] = target: HIV-1 MGRM-A-013 Env (HIV-1)
[34] = target: HIV-1 94KE105 Env (HIV-1)
[35] = target: HIV-1 92TH021 Env (HIV-1)
[36] = target: HIV-1 MGRM-AG-006 Env (HIV-1)
[37] = target: HIV-1 93UG077 Env (HIV-1)
[38] = target: HIV-1 MGRM-A-009 Env (HIV-1)
[39] = target: HIV-1 92UG037 Env (HIV-1)
[40] = target: HIV-1 MGRM-A-012 Env (HIV-1)
[41] = target: HIV-1 92WR009 Env (HIV-1)
[42] = target: HIV-1 92WR024 Env (HIV-1)
[43] = target: HIV-1 MGRM-A-007 Env (HIV-1)
[44] = target: HIV-1 MGRM-AE-005 Env (HIV-1)
[45] = target: HIV-1 MGRM-A-003 Env (HIV-1)

5123_A06 (PGT-125) (antibody)
IC50 [1]: 0.013 µg/mL | IC50 [2]: 0.026 µg/mL | IC50 [3]: > 50 µg/mL | IC50 [4]: 0.008 µg/mL | IC50 [5]: 2.95 µg/mL | IC50 [6]: > 50 µg/mL | IC50 [7]: > 50 µg/mL | IC50 [8]: > 50 µg/mL | IC50 [9]: > 50 µg/mL | IC50 [10]: 0.009 µg/mL | IC50 [11]: > 50 µg/mL | IC50 [12]: > 50 µg/mL | IC50 [13]: > 50 µg/mL | IC50 [14]: > 50 µg/mL | IC50 [15]: > 50 µg/mL | IC50 [16]: 12.4 µg/mL | IC50 [17]: 0.004 µg/mL | IC50 (HIV-1 CMU02 Env (HIV-1)): > 50 µg/mL | IC50 [18]: 0.004 µg/mL | IC50 [19]: 0.007 µg/mL | IC50 [20]: 0.005 µg/mL | IC50 [21]: 0.092 µg/mL | IC50 (HIV-1 VLGCA1 Env (HIV-1)): 0.078 µg/mL | IC50 [22]: > 50 µg/mL | IC50 [23]: > 50 µg/mL | IC50 [24]: > 50 µg/mL | IC50 [25]: 0.004 µg/mL | IC50 [26]: > 50 µg/mL | IC50 [27]: > 50 µg/mL | IC50 [28]: 0.004 µg/mL | IC50 [29]: 13.9 µg/mL | IC50 [30]: > 50 µg/mL | IC50 [31]: 0.876 µg/mL | IC50 [32]: > 50 µg/mL | IC50 [33]: 0.014 µg/mL | IC50 [34]: 0.004 µg/mL | IC50 [35]: 0.006 µg/mL | IC50 [36]: 0.008 µg/mL | IC50 [37]: 0.012 µg/mL | IC50 [38]: 0.009 µg/mL | IC50 [39]: 0.005 µg/mL | IC50 [40]: 0.177 µg/mL | IC50 [41]: 0.144 µg/mL | IC50 [42]: 35.5 µg/mL | IC50 [43]: > 50 µg/mL | IC50 [44]: 0.01 µg/mL | IC50 [45]: > 50 µg/mL

5141_B17 (PGT-126) (antibody)
IC50 [1]: 0.015 µg/mL | IC50 [2]: 0.03 µg/mL | IC50 [3]: > 50 µg/mL | IC50 [4]: 0.008 µg/mL | IC50 [5]: 9.68 µg/mL | IC50 [6]: > 50 µg/mL | IC50 [7]: > 50 µg/mL | IC50 [8]: > 50 µg/mL | IC50 [9]: > 50 µg/mL | IC50 [10]: 17.3 µg/mL | IC50 [11]: 24.5 µg/mL | IC50 [12]: > 50 µg/mL | IC50 [13]: > 50 µg/mL | IC50 [14]: > 50 µg/mL | IC50 [15]: > 50 µg/mL | IC50 [16]: > 50 µg/mL | IC50 [17]: 0.002 µg/mL | IC50 (HIV-1 CMU02 Env (HIV-1)): > 50 µg/mL | IC50 [18]: 0.008 µg/mL | IC50 [19]: 0.008 µg/mL | IC50 [20]: 0.006 µg/mL | IC50 [21]: > 50 µg/mL | IC50 (HIV-1 VLGCA1 Env (HIV-1)): > 50 µg/mL | IC50 [22]: > 50 µg/mL | IC50 [23]: > 50 µg/mL | IC50 [24]: 1.21 µg/mL | IC50 [25]: 0.008 µg/mL | IC50 [26]: > 50 µg/mL | IC50 [27]: > 50 µg/mL | IC50 [28]: 0.006 µg/mL | IC50 [29]: 0.01 µg/mL | IC50 [30]: > 50 µg/mL | IC50 [31]: > 50 µg/mL | IC50 [32]: > 50 µg/mL | IC50 [33]: 0.006 µg/mL | IC50 [34]: 0.006 µg/mL | IC50 [35]: 0.197 µg/mL | IC50 [36]: 0.01 µg/mL | IC50 [37]: 0.02 µg/mL | IC50 [38]: 0.004 µg/mL | IC50 [39]: 0.011 µg/mL | IC50 [40]: 0.097 µg/mL | IC50 [41]: > 50 µg/mL | IC50 [42]: 42 µg/mL | IC50 [43]: > 50 µg/mL | IC50 [44]: 0.324 µg/mL | IC50 [45]: > 50 µg/mL

4877_D15 (PGT-122) (antibody)
IC50 [1]: 0.017 µg/mL | IC50 [2]: 0.128 µg/mL | IC50 [3]: > 50 µg/mL | IC50 [4]: 2.04 µg/mL | IC50 [5]: > 50 µg/mL | IC50 [6]: > 50 µg/mL | IC50 [7]: > 50 µg/mL | IC50 [8]: > 50 µg/mL | IC50 [9]: > 50 µg/mL | IC50 [10]: > 50 µg/mL | IC50 [11]: > 50 µg/mL | IC50 [12]: > 50 µg/mL | IC50 [13]: 14.5 µg/mL | IC50 [14]: > 50 µg/mL | IC50 [15]: > 50 µg/mL | IC50 [16]: > 50 µg/mL | IC50 [17]: 2.51 µg/mL | IC50 (HIV-1 CMU02 Env (HIV-1)): > 50 µg/mL | IC50 [18]: 0.003 µg/mL | IC50 [19]: 0.036 µg/mL | IC50 [20]: 0.021 µg/mL | IC50 [21]: > 50 µg/mL | IC50 (HIV-1 VLGCA1 Env (HIV-1)): > 50 µg/mL | IC50 [22]: > 50 µg/mL | IC50 [23]: > 50 µg/mL | IC50 [24]: 33.9 µg/mL | IC50 [25]: 0.521 µg/mL | IC50 [26]: > 50 µg/mL | IC50 [27]: 43.7 µg/mL | IC50 [28]: 0.009 µg/mL | IC50 [29]: 0.007 µg/mL | IC50 [30]: > 50 µg/mL | IC50 [31]: > 50 µg/mL | IC50 [32]: > 50 µg/mL | IC50 [33]: 2.47 µg/mL | IC50 [34]: 0.056 µg/mL | IC50 [35]: > 50 µg/mL | IC50 [36]: 0.028 µg/mL | IC50 [37]: 0.084 µg/mL | IC50 [38]: 0.012 µg/mL | IC50 [39]: 0.068 µg/mL | IC50 [40]: 0.257 µg/mL | IC50 [41]: 42.4 µg/mL | IC50 [42]: > 50 µg/mL | IC50 [43]: > 50 µg/mL | IC50 [44]: > 50 µg/mL | IC50 [45]: 3.79 µg/mL
